# Results as given in publication PMC9127186, “Molecular Basis Underlying Hepatobiliary and Renal Excretion of Phenolic Acids of Salvia miltiorrhiza Roots (Danshen)” (Frontiers in Pharmacology, 2022).
# Where a SMILES comes first, the peptide text is derived from it. [ ]: non-standard residue; d: D form. Sar = CNCC(=O)O
# T1: rat Pept2 (Rattus norvegicus, UniProt Q63424)
# T1 sequence (Q63424 1-729): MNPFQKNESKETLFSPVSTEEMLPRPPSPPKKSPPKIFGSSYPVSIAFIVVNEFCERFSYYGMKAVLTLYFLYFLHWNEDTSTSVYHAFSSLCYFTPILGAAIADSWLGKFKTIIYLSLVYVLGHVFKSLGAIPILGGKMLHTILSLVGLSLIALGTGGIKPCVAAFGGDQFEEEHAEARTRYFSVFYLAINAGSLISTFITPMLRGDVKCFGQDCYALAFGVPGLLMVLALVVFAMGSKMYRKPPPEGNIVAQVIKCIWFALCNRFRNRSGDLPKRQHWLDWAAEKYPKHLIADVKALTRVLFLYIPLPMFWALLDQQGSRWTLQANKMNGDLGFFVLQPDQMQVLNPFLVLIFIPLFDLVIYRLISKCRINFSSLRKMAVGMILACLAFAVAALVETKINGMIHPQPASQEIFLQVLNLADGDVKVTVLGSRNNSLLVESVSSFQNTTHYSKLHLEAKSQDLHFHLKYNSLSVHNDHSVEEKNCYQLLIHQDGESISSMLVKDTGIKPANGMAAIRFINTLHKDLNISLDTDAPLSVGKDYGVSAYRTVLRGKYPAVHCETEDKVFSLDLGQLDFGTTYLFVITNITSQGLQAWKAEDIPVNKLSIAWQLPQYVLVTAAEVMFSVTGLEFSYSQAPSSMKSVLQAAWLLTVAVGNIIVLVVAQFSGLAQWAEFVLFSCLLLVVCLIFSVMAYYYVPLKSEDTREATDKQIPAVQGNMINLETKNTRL
# T2: human PEPT2 (Homo sapiens, UniProt Q16348)
# T2 sequence (Q16348 1-729): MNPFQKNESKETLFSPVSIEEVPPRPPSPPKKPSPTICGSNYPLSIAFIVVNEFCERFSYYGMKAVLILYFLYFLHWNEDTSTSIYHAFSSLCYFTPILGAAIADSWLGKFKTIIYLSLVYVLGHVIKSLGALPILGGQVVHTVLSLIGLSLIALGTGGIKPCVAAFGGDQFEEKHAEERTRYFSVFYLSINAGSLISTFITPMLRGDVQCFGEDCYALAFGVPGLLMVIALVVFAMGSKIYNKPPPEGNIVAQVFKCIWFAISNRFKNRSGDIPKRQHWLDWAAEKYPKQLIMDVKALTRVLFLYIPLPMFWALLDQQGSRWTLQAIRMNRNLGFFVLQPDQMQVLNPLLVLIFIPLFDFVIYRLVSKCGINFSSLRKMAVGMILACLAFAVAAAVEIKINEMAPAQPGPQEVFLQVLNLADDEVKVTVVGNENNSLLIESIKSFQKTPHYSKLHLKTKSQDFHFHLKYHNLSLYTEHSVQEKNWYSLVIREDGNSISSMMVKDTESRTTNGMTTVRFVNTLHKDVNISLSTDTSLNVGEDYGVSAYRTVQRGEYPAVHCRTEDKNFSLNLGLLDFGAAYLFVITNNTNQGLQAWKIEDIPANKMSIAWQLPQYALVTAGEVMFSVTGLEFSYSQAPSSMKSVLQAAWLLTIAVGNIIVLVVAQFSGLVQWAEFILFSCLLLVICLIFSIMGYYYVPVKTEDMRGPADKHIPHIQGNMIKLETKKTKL
# T3: human PEPT1 (Homo sapiens, UniProt P46059)
# T3 sequence (P46059 1-708): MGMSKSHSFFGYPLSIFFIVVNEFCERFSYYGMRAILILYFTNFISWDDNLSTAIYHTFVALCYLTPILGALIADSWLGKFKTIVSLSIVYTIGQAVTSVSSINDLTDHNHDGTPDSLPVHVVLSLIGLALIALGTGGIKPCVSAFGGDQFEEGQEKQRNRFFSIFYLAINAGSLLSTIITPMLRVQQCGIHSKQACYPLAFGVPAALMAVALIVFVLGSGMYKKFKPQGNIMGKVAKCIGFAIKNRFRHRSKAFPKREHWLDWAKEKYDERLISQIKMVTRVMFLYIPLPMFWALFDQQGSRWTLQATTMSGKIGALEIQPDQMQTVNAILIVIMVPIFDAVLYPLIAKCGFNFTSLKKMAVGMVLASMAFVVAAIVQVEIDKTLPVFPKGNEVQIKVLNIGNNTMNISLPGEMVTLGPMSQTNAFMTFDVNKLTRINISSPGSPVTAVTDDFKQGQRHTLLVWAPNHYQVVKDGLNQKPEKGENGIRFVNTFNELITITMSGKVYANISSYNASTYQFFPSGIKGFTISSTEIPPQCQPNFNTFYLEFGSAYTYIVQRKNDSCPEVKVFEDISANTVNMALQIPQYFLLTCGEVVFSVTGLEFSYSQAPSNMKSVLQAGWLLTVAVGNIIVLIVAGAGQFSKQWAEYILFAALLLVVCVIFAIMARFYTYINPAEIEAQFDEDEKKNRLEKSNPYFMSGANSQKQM
# T4: rat Pept1 (Rattus norvegicus, UniProt P51574)
# T4 sequence (P51574 1-710): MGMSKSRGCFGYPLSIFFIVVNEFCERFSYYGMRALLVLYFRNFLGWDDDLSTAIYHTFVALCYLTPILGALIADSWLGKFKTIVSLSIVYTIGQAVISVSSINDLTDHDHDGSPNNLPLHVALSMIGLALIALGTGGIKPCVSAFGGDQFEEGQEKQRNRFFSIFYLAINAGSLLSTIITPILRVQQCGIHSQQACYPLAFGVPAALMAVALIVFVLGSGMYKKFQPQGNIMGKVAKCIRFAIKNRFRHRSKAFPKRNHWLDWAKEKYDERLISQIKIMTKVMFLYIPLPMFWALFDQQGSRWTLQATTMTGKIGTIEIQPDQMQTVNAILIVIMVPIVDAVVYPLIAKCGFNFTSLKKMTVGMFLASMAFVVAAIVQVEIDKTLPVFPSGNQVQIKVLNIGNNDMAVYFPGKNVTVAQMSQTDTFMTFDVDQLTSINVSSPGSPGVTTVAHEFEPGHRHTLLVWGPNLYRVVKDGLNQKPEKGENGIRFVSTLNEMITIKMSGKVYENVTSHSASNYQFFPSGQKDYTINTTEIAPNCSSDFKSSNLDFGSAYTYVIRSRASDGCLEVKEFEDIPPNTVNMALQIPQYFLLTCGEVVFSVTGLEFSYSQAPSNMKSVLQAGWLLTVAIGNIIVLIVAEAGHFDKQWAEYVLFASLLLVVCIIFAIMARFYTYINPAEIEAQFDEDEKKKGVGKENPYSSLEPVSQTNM
# B1: human OATP1B1 (Homo sapiens) (protein)
# chain: MDQNQHLNKTAEAQPSENKKTRYCNGLKMFLAALSLSFIAKTLGAIIMKSSIIHIERRFEISSSLVGFIDGSFEIGNLLVIVFVSYFGSKLHRPKLIGIGCFIMGIGGVLTALPHFFMGYYRYSKETNINSSENSTSTLSTCLINQILSLNRASPEIVGKGCLKESGSYMWIYVFMGNMLRGIGETPIVPLGLSYIDDFAKEGHSSLYLGILNAIAMIGPIIGFTLGSLFSKMYVDIGYVDLSTIRITPTDSRWVGAWWLNFLVSGLFSIISSIPFFFLPQTPNKPQKERKASLSLHVLETNDEKDQTANLTNQGKNITKNVTGFFQSFKSILTNPLYVMFVLLTLLQVSSYIGAFTYVFKYVEQQYGQPSSKANILLGVITIPIFASGMFLGGYIIKKFKLNTVGIAKFSCFTAVMSLSFYLLYFFILCENKSVAGLTMTYDGNNPVTSHRDVPLSYCNSDCNCDESQWEPVCGNNGITYISPCLAGCKSSSGNKKPIVFYNCSCLEVTGLQNRNYSAHLGECPRDDACTRKFYFFVAIQVLNLFFSALGGTSHVMLIVKIVQPELKSLALGFHSMVIRALGGILAPIYFGALIDTTCIKWSTNNCGTRGSCRTYNSTSFSRVYLGLSSMLRVSSLVLYIILIYAMKKKYQEKDINASENGSVMDEANLESLNKNKHFVPSAGADSETHC
# B2: rat Oatp1b2 (Rattus norvegicus) (protein)
# chain: MDHTQQSRKAAEAQPSRSKQTRFCDGFKLFLAALSFSYICKALGGVVMKSSITQIERRFDIPSSISGLIDGGFEIGNLLVIVFVSYFGSKLHRPKLIGIGCFIMGIGSILTALPHFFMGYYKYAKENDIGSLGNSTLTCFINQMTSPTGPSPEIVEKGCEKGLKSHMWIYVLMGNMLRGIGETPIVPLGISYLDDFAKEGHTSMHLGTLHTIAMIGPILGFIMSSVFAKIYVDVGYVDLNSVRITPNDARWVGAWWLSFIVNGLLCITSSIPFFFLPKIPKRSQEERKNSVSLHAPKTDEEKKHMTNLTKQEEQDPSNMTGFLRSLRSILTNEIYVIFLILTLLQVSGFIGSFTYLFKFIEQQFGRTASQANFLLGIITIPTMATAMFLGGYIVKKFKLTSVGIAKFVFFTSSVAYAFQFLYFPLLCENKPFAGLTLTYDGMNPVDSHIDVPLSYCNSDCSCDKNQWEPICGENGVTYISPCLAGCKSFRGDKKPNNTEFYDCSCISNSGNNSAHLGECPRYKCKTNYYFYIILQVTVSFFTAMGSPSLILILMKSVQPELKSLAMGFHSLIIRALGGILAPIYYGAFIDRTCIKWSVTSCGKRGACRLYNSRLFGFSYLGLNLALKTPPLFLYVVLIYFTKRKYKRNDNKTLENGRQFTDEGNPDSVNKNGYYCVPYDEQSNETPL
# Assays:
# rat Pept2 = target: T1, rat Pept2; assay: Cellular transport assay, HEK-293 cells expressing rat Pept2; conditions: positive substrate 20 μM, 10 min; rat Pept2
# human PEPT2 = target: T2, human PEPT2; assay: Cellular transport assay, HEK-293 cells expressing human PEPT2; conditions: positive substrate 20 μM, 10 min; human PEPT2
# human PEPT1 = target: T3, human PEPT1; assay: Cellular transport assay, HEK-293 cells expressing human PEPT1; conditions: positive substrate 20 μM, 10 min; human transporter printed PEPE1
# rat Pept1 = target: T4, rat Pept1; assay: Cellular transport assay, HEK-293 cells expressing rat Pept1; conditions: positive substrate 20 μM, 10 min; rat Pept1
# [1] = substrate: O=C(/C=C/c1ccc(O)c2c1[C@H](C(=O)O)[C@@H](c1ccc(O)c(O)c1)O2)O[C@H](Cc1ccc(O)c(O)c1)C(=O)O; assay: cells, lysate or membranes named; conditions: 5 min incubation, concentrations in Table 1, 37.0 °C
# [2] = substrate: O=C(/C=C/c1ccc(O)c(O)c1)O[C@H](Cc1ccc(O)c(O)c1)C(=O)O; assay: cells, lysate or membranes named; conditions: 5 min incubation, concentrations in Table 1, 37.0 °C
# [3] = substrate: O=C(O)Cc1c(/C=C/C(=O)OC(Cc2ccc(O)c(O)c2)C(=O)O)ccc(O)c1O; assay: cells, lysate or membranes named; conditions: 5 min incubation, concentrations in Table 1, 37.0 °C
# [4] = substrate: O=C(/C=C/c1ccc(O)c(O)c1/C=C/c1ccc(O)c(O)c1)O[C@H](Cc1ccc(O)c(O)c1)C(=O)O; assay: cells, lysate or membranes named; conditions: other: rat hepatic sinusoidal uptake Oatp1b2; 5 min incubation, concentrations in Table 1; 37.0 °C
# [5] = other: human hepatic sinusoidal uptake OATP1B1
# [6] = other: rat hepatic sinusoidal uptake Oatp1b2
molecule,measurement,setting,value
"CN(CC(=O)O)C(=O)CN [GS, glycylsarcosine, reference compound] (H-Gly-[Sar]-OH)","TransportTC/TransportMC ratio, positive substrate",rat Pept2,101 ± 19 (GS)
same,"TransportTC/TransportMC ratio, positive substrate",human PEPT2,360 ± 49 (GS)
same,"TransportTC/TransportMC ratio, positive substrate",human PEPT1,126 ± 31 (GS)
same,"TransportTC/TransportMC ratio, positive substrate",rat Pept1,90.1 ± 10.4 (GS)
B1,Vmax,[1]; [5],2.7e-05 µmol/min/mg
same,Vmax/Km,[1]; [5],0.06 µL/min/mg
same,Vmax,[2]; [5],9.81e-05 µmol/min/mg
same,Vmax/Km,[2]; [5],0.07 µL/min/mg
same,Vmax,[3]; [5],8.93e-05 µmol/min/mg
same,Vmax/Km,[3]; [5],0.22 µL/min/mg
B2,Vmax,[1]; [6],3.77e-05 µmol/min/mg
same,Vmax/Km,[1]; [6],0.41 µL/min/mg
same,Vmax,[4],1.92e-05 µmol/min/mg
same,Vmax/Km,[4],0.38 µL/min/mg
same,Vmax,[2]; [6],0.000159 µmol/min/mg
same,Vmax/Km,[2]; [6],0.08 µL/min/mg
same,Vmax,[3]; [6],0.000572 µmol/min/mg
same,Vmax/Km,[3]; [6],1.23 µL/min/mg
